From the supplement of paper PMC9170038

System: MS2 coat protein
Experiment: apparent KD of MS2 coat protein; designed switch direction (-1 OFF switch, 1 ON switch): 1; higher = weaker reporter binding
Method in brief: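 The buffer was Tris-HCl pH 7.5 with KCl, MgCl2, BSA, DTT, tRNA and Tween-20. In it, SNAP-549-labelled MS2 coat protein was titrated in doubling steps from 0.7 or 1.5 nM to 3 µM over chip-bound RNA switches transcribed by stalled E. coli RNA polymerase on Illumina chips. Apparent KD is the per-design median over clusters of curve fits to normalised fluorescence.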

[1] = input ligand: microRNA oligo, concentration not stated
[2] = Eterna round: R95, input ligand: FMN 200 uM
[3] = Eterna round: R95, input ligand: microRNA oligo, concentration not stated
[4] = Eterna round: R95, input ligand: none

Sequence | apparent KD of MS2 coat protein (input ligand: FMN 200 uM) | apparent KD of MS2 coat protein [1] | apparent KD of MS2 coat protein (input ligand: none) | apparent KD of MS2 coat protein [2] | apparent KD of MS2 coat protein [3] | apparent KD of MS2 coat protein [4]
GCUGGAAAUCACAUGAGGAUCACCCAUGUUCCGGAAACGGCACAGGAUAUCUGUCCGAAAAGGUCAGAGAAGGGUGAAACCAGC [Fiskers NG3ss - 85] (Eterna round: R96, puzzle: Same State NG 3) | 303 nM | 56.1 nM | 105 nM |  |  | 
UGCAUACGCCUACAAGAGGAGUCCUGCAGACAUGAGGAUCACCCAUGUAACUCGAAUUCAGUUCGUUCGUCUGUCGU [JR_hsamir208a_Sub1412] (Eterna round: R96, puzzle: Sensor for hsa-mir-208a) | 57 nM | 33.9 nM | 52.9 nM |  |  | 
CAAGCUUGGGUCGUCCCGCUCGUCUACAAACAUGAGGAUCACCCAUGUAAAAUCUAAAAUUCAAAUCUAUCUCUAAA [Getienre] (puzzle: Sensor for hsa-mir-208a) |  |  |  | 515 nM | 20.9 nM | 563 nM
ACUUAGUACAAUUUAGAUCUACAUGAGGAUCACCCAUGUACUGAGGAUAUCAGCUCGAAUAGAGCUGAGAAGGCAGUAGUACUA [SSNG3/9-A1] (Eterna round: R96, puzzle: Same State NG 3) | 47.4 nM | 42.6 nM | 50.2 nM |  |  | 
AAAAGACAUGAGGAUCACCCAUGUAUGAAAAGUACAGGAUAUCACGCGCUAAAAUGCGAGUGAGAAGGGUGAAAAU [Oronen] (puzzle: Same State 1) |  |  |  | 4350 nM | 51.3 nM | 180 nM
GGAGAGAGAGCACAGGAUAUUUAAGGAGAGACAUGAGGAUCACCCAUGUGAGAGAGAGAGGAGAGAGAGAAGGGUGAGAGAGAGG [Altered State 2-17 - Jieux - Same State 2] (puzzle: Same State 2) |  |  |  | 109 nM | 79.1 nM | 83.9 nM
AGAGGAGGCGCAGGAUAUACGACGGAGGACGUGGUAGAAGGGUGCAUGCGAUGACAUGAGGAUCACCCAUGUACCGCGCGACGA [AK SSNG1-V2-16] (Eterna round: R96, puzzle: Same State NG 1) | 337 nM | 14.2 nM | 78.9 nM |  |  | 
GAGUAGUUGAAAGGAUAUCGAUUGUUAUAGAAUCGAGAAGGUUCUAACAUGAGGAUCACCCAUGUAGGACUAUUCCUGUGUAUC [Parity 77 - Jieux - Same State NG 1] (Eterna round: R96, puzzle: Same State NG 1) |  | 9.75 nM |  |  |  | 
CGAAGUCGUAGAGGAUAUGGGUGGCCGGAGUCAACAUGAGGAUCACCCAUGUGCUAAUAUGAGAUCCAGAAGGCUGCGAACGGG [Eternabot solution 16] (Eterna round: R96, puzzle: Same State NG 2) | 57.1 nM | 31.4 nM | 430 nM |  |  | 
GAGGGACAGACCAACAUGAGGAUCACCCAUGUCCUCGCAGGUCAGGAUAUUAUUAGGAUCACCAGUGAGAAGGGACGGUGAACC (Eterna round: R96, puzzle: Same State NG 3) | 755 nM | 398 nM | 564 nM |  |  | 
AACGUGGGAGCACAGGAUAUGCAUUGCUCCACAUGAGGAUCACCCAUGUAGGCAAAUAGGGAGCAGCAGAAGGGUGGUCCGACAC [Orraonrexe] (puzzle: Same State 2) |  |  |  | 17.3 nM | 8.24 nM | 21.8 nM
UAUUUAAUCGUAGGAUAUAGAGUGAAAUUUGUACUAGAAGGACGUAACAUGAGGAUCACCCAUGUGGUAAGUGGGACAUAGUAU [JR_SSNG1_Sub037] (Eterna round: R96, puzzle: Same State NG 1) | 44.1 nM | 27 nM | 39.7 nM |  |  | 
UUCCCAUCGGGAGGAUAUGGAACCUUAUUGGUUCUAGAAGGUCCAACAUGAGGAUCACCCAUGUGGGAGUGGUCUAAUGACCUC [SS NG10LRO03] (Eterna round: R96, puzzle: Same State NG 1) | 264 nM | 288 nM | 333 nM |  |  | 
UGGUACAUGGGAGGAUAUCUCGUGGAGACAUGAGGAUCACCCAUGUAGAUGGCCGGUAACCGGUGAGAGAAGGCCCAUGUACCU [JL SSNG1 3.69] (Eterna round: R96, puzzle: Same State NG 2) | 71.6 nM | 42.2 nM | 141 nM |  |  | 
GUGGUCAGACAUGAGGAUCACCCAUGUGGAAUAAAUAAGGGUCAGGAUAUGGAAUAUAGGAUAUACCAGAAGGGAUGGUUGGUG (Eterna round: R96, puzzle: Same State NG 3) | 134 nM | 70.2 nM | 92.8 nM |  |  | 
AGUCCAGCGAAAGCUGGACAGAAGCAUGUACAUGAGGAUCACCCAUGUUCAUGUACAAGCUUUUUGCUCGUCUUAAA [JL mod - D95 - 1] (puzzle: Sensor for hsa-mir-208a) |  |  |  | 476 nM | 14.9 nM | 418 nM

Sequence | apparent KD of MS2 coat protein (input ligand: FMN 200 uM) | apparent KD of MS2 coat protein [1] | apparent KD of MS2 coat protein (input ligand: none) | apparent KD of MS2 coat protein [2] | apparent KD of MS2 coat protein [3] | apparent KD of MS2 coat protein [4]
UUUGCAUGACGAGGAUAUCAUUUAUUUCAUGUUUGAGAAGGCGUUUUUUUUAUUACCUUACAUGAGGAUCACCCAUGUGUCUGU [JR_SSNG1_Sub044] (Eterna round: R96, puzzle: Same State NG 1) | 32.2 nM | 39.6 nM | 48.5 nM |  |  | 
GUGGUCAGACAUGAGGAUCACCCAUGUGGAAUAAAUAAGGAAAAGGAUAUGGAAUAUAGGAUAUACCAGAAGGUUUGGUUGGUG (Eterna round: R96, puzzle: Same State NG 3) |  | 83 nM |  |  |  | 
CAGUGCUGUCGAGAGGAUAUGCGGUGAUGGACAUGAGGAUCACCCAUGUUAGCGACAGCAUCACGGCAGAAGGCUCUACCCACUG [Soteed Omei mod 45] (puzzle: Same State 2) |  |  |  |  | 16.7 nM | 
AACAAUCUAUCUGAGGAUAUCAUGAAAUUAACAUGAGGAUCACCCAUGUGCAGGAAAACUGCAUAUGAGAAGGCAGAUAGAUUGA [salish99_ss2_r3_033] (puzzle: Same State 2) |  |  |  | 120 nM | 1110 nM | 2020 nM
AAACGCAGCAUAUCGCUGCGACAUGAGGAUCACCCAUGUACACAGGAUAUCGCAGCAUACCGCCGCGAGAAGGGUGAUCAAGAC [Anonlete] (Eterna round: R96, puzzle: Same State NG 3) | 99.3 nM | 16.3 nM | 33.9 nM |  |  | 
AAAAGAAGAAGUAAGGAUAUUCAAAAGAAAACAUGAGGAUCACCCAUGUACCAAAAGAAAGAAAAGAAGAAGGUACACAAGAAAA [Same State 2 #3] (puzzle: Same State 2) |  |  |  | 24.7 nM | 23.2 nM | 22.8 nM
GUGGAGAAUUAAGGAUAUCGAGUCAAGAUGUUAAACAUGAGGAUCACCCAUGUGGGUUGCGGUAUCGAGAAGGUAAUUUACGGG [salish99_SSNG2_r04_505] (Eterna round: R96, puzzle: Same State NG 2) | 22.4 nM | 21.3 nM | 36.8 nM |  |  | 
GCUCGACGUAUGGCCUACAUGAGGAUCACCCAUGUGACUGGGCAGGAUAUCUAGAUGCAGAAUGUAGAGAAGGGCCCGUCGAGC [SameState NG3 #48] (Eterna round: R96, puzzle: Same State NG 3) | 244 nM | 74 nM | 194 nM |  |  | 
GUUACAUGAGGAUCACCCAUGUAAGUGUGGGAGAAAGUGACUUAGGAUAUCUAAUAUUUAAAUUAAGAGAAGGAAGAUUGUUGU [JMF's solution 4] (Eterna round: R96, puzzle: Same State NG 3) | 86.8 nM | 64.3 nM | 81.6 nM |  |  | 
GGCUGUUAAUUAGGAUAUGGUCACAUGAGGAUCACCCAUGUAACGAUGAUACGAUGUGGUCAAGACUAGAAGGGAUCGCUAACA [SameState NG2 #71] (Eterna round: R96, puzzle: Same State NG 2) | 172 nM | 128 nM | 105 nM |  |  | 
CCAGCUACUCACAUGAGGAUCACCCAUGUCUAGGAUAUAGUAGAGGAUAUUGGCGGAUGGAAGACCGAGAAGGCUACCUCCUGA [Eternabot solution 49] (Eterna round: R96, puzzle: Same State NG 3) | 17.9 nM | 14.4 nM | 18.3 nM |  |  | 
GACAAUCUAUCUGAGGAUAUCAUGAAGAAAACAUGAGGAUCACCCAUGUGCAGGAGAACUGCAAAUGAGAAGGCAGAUAGAUUGG [Mat - Same State 2 - Mod - D2] (puzzle: Same State 2) |  |  |  | 8.71 nM | 13.1 nM | 20.4 nM
CGGCGCUGUCGAGAGGAUAUGCGGUGAUGGACAUGAGGAUCACCCAUGUUAGCGAUAGCAUCACGGUAGAAGGCUCUUACGCCUG [Soteed Omei mod 23] (Eterna round: R96, puzzle: Same State 2) | 217 nM | 257 nM | 717 nM |  |  | 
UCUUGGUUUUUGCUCGUUUUUUGUGUUGAACAUGAGGAUCACCCAUGUAUUGUACGGUCCGGUUUGAUAGUGGUCCA [JMF 45] (puzzle: Sensor for hsa-mir-208a) |  |  |  | 111 nM | 71.6 nM | 120 nM
UGGCUGGUGCUAGGAUAUGCAUGAGGCCUCCUCGUAGAAGGAGCACGACAUGAGGAUCACCCAUGUGGCCGUCCGUGGGCGGCU [salish99_SSNG1_r04_015] (Eterna round: R96, puzzle: Same State NG 1) | 68 nM | 44.8 nM | 60.1 nM |  |  | 
